Results on 1 molecule are retold here after doi:10.1101/2021.04.12.439405 (bioRxiv, 2021).

This assay addresses T1, MukB^K1114E (E. coli, UniProt P22523 1-1486, K1114E).
T1 sequence (looked up): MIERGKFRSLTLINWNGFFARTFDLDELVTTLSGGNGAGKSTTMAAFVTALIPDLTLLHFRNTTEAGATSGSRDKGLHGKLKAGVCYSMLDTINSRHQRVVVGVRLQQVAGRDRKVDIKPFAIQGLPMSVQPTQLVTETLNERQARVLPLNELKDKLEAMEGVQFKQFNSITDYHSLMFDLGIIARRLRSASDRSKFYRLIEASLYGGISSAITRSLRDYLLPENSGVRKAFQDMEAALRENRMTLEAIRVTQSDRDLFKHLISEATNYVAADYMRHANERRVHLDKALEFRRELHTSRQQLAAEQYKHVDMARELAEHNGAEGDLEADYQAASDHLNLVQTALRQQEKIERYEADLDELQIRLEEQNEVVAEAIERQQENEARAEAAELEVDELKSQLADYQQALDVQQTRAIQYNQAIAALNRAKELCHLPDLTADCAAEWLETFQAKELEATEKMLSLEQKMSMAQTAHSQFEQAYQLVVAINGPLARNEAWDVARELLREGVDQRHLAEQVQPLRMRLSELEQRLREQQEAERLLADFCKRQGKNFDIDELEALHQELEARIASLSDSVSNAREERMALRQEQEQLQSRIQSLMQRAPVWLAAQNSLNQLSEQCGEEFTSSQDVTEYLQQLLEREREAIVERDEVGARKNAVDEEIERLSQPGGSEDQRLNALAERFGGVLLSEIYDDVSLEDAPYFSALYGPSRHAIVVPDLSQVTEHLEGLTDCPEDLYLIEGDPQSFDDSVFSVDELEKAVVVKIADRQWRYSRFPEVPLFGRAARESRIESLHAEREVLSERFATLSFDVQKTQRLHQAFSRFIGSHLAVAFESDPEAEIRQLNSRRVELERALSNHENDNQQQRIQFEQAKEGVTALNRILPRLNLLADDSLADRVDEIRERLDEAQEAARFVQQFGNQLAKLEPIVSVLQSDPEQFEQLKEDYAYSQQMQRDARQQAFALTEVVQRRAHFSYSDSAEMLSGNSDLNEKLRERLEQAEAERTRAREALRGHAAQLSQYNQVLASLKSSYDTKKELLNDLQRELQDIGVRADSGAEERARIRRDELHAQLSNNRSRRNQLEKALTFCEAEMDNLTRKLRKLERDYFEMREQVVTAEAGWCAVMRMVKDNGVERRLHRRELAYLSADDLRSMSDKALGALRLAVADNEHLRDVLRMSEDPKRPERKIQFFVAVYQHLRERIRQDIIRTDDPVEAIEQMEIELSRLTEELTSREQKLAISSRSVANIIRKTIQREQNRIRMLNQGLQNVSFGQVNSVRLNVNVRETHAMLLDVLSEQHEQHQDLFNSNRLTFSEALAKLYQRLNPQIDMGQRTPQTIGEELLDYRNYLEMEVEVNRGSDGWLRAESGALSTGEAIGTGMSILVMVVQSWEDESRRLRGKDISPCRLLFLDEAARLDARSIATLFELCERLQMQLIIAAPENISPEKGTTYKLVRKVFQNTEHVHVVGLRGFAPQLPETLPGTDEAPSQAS
The assay is described as follows: native gel or EMSA.

B1: His-MukF (natural protein, E. coli, UniProt P60293 1-440, looked up)
chain: MSEFSQTVPELVAWARKNDFSISLPVDRLSFLLAVATLNGERLDGEMSEGELVDAFRHVSDAFEQTSETIGVRANNAINDMVRQRLLNRFTSEQAEGNAIYRLTPLGIGITDYYIRQREFSTLRLSMQLSIVAGELKRAADAAEEGGDEFHWHRNVYAPLKYSVAEIFDSIDLTQRLMDEQQQQVKDDIAQLLNKDWRAAISSCELLLSETSGTLRELQDTLEAAGDKLQANLLRIQDATMTHDDLHFVDRLVFDLQSKLDRIISWGQQSIDLWIGYDRHVHKFIRTAIDMDKNRVFAQRLRQSVQTYFDEPWALTYANADRLLDMRDEEMALRDEEVTGELPEDLEYEEFNEIREQLAAIIEEQLAVYKTRQVPLDLGLVVREYLSQYPRARHFDVARIVIDQAVRLGVAQADFTGLPAKWQPINDYGAKVQAHVIDKY
For the molecule B1, the binding result was “binds”.
